Measurements: paper PMC5660093, “Structure of SgK223 pseudokinase reveals novel mechanisms of homotypic and heterotypic association” (Nature Communications, 2017)
Numbering of substitutions follows the chain as printed.

B1: SgK223-αN1-PsK-Cter F974A (domain or fragment, human, UniProt Q86YV5 932-1406, looked up)
chain: GSTQLQLHGLLSNISSKEGTYAKLGGLYTQSLARLVAKCEDLAMGGQKKELHFNENNWSLFKLTCNKPCCDSGDAIYYCATCSEDPGSTYAVKICKAPEPKTVSYCSPSVPVHFNIQQDCGHFVASVPSSMLSSPDAPKDPVPALPTHPPAQEQDCVVVITREVPHQTASDFVRDSAASHQAEPEAYERRVCFLLLQLCNGLEHLKEHGIIHRDLCLENLLLVHCTLQAGPGPAPAPAPAPAPAAAAPPCSSAAPPAGGTLSPAAGPASPEGPREKQLPRLIISNFLKAKQKPGGTPNLQQKKSQARLAPEIVSASQYRKFDEFQTGILIYELLHQPNPFEVRAQLRERDYRQEDLPPLPALSLYSPGLQQLAHLLLEADPIKRIRIGEAKRVLQCLLWGPRRELVQQPGTSEEALCGTLHNWIDMKRALMMMKFAEKAVDRRRGVELEDWLCCQYLASAEPGALLQSLKLLQLL
notes: SgK223 (Pragmin), human, residues 932-1406; source: E. coli C41(DE3), purified (Ni-NTA, SEC)
B2: SgK223-αN1-PsK-Cter W1354A (domain or fragment, human, UniProt Q86YV5 932-1406, looked up)
chain: B1 chain with A43F, W423A
notes: SgK223 (Pragmin), human, residues 932-1406; also called alanine mutation of Trp1354; source: E. coli C41(DE3), purified (Ni-NTA, SEC)
B3: SgK223-αN1-PsK-Cter (WT) (domain or fragment, human, UniProt Q86YV5 932-1406, looked up)
chain: B1 chain with A43F
notes: SgK223 (Pragmin), human, residues 932-1406: αN1 helix, pseudokinase domain and C-terminal helices; Modified pCOLD IV vector with an N-terminal His TEV cleavage tag; Monomer MW printed as 54 kDa; A seleno-methionine form was also crystallised; also called WT-SgK223-αN1-PsK-Cter; SgK223-WT (αN1-PsK-Cter); source: E. coli C41(DE3), purified (Ni-NTA, SEC)
B4: SgK223-αN1-PsK-Cter Y1282A (domain or fragment, human, UniProt Q86YV5 932-1406, looked up)
chain: B1 chain with A43F, Y351A
notes: as for B1
B5: SgK223-αN1-PsK-Cter F1271A (domain or fragment, human, UniProt Q86YV5 932-1406, looked up)
chain: B1 chain with A43F, F340A
notes: SgK223 (Pragmin), human, residues 932-1406; also called SgK223-αN1-PsK-Cter Phe1271Ala; His-SgK223-αN1-PsK-Cter; source: E. coli C41(DE3), purified (Ni-NTA, SEC); not shown: His tag, N-terminal, kept
B6: SgK223 αN1-PsK-Cter I1243A (domain or fragment, human, UniProt Q86YV5 932-1406, looked up)
chain: B1 chain with A43F, I312A
notes: as for B1
B7: SgK269-αN1-PsK-Cter (WT) (domain or fragment, human, UniProt Q9H792 1267-1746, looked up)
chain: GIQKPQRQALYRGLENREEVVGKIRSLHTDALKKLAVKCEDLFMAGQKDQLRFGVDSWSDFRLTSDKPCCEAGDAVYYTASYAKDPLNNYAVKICKSKAKESQQYYHSLAVRQSLAVHFNIQQDCGHFLAEVPNRLLPWEDPDDPEKDEDDMEETEEDAKGETDGKNPKPCSEAASSQKENQGVMSKKQRSHVVVITREVPCLTVADFVRDSLAQHGKSPDLYERQVCLLLLQLCSGLEHLKPYHVTHCDLRLENLLLVHYQPGGTAQGFGPAEPSPTSSYPTRLIVSNFSQAKQKSHLVDPEILRDQSRLAPEIITATQYKKCDEFQTGILIYEMLHLPNPFDENPELKEREYTRADLPRIPFRSPYSRGLQQLASCLLNPNPSERILISDAKGILQCLLWGPREDLFQTFTACPSLVQRNTLLQNWLDIKRTLLMIKFAEKSLDREGGISLEDWLCAQYLAFATTDSLSCIVKILQHR
notes: SgK269 (PEAK1), human, residues 1267-1746: αN1 helix, pseudokinase domain and C-terminal helices; also called SgK269-WT (αN1-PsK-Cter); SgK269-WT; source: E. coli C41(DE3), purified (Ni-NTA, SEC)
B8: His tag cleaved SgK269-αN1-PsK-Cter F1609A (domain or fragment, human, UniProt Q9H792 1267-1746, looked up)
chain: B7 chain with F343A
notes: SgK269 (PEAK1), human, residues 1267-1746; also called SgK269-αN1-PsK-Cter Phe1609Ala; source: E. coli C41(DE3), purified (Ni-NTA, SEC); not shown: His tag, N-terminal, cleaved

What was measured:
[1] = biological target: the molecule itself; assay: AUC; sedimentation velocity, WT and mutants each at 3.0 μM; 20 mM Tris-HCl, 150 mM NaCl, pH 8.0, 20 °C
[2] = biological target: the molecule itself; assay: AUC; sedimentation velocity at 0.6, 1.2 and 2.3 μM; 20 mM Tris-HCl, 150 mM NaCl, pH 8.0, 20 °C; dimer to monomers
[3] = biological target: B7; assay: SEC; SgK223 and SgK269 proteins mixed equimolar at 29.06 μM, 15 min on ice; Superdex 200 Increase 10/300 GL; 20 mM Tris pH 8.5, 200 mM NaCl, 5% glycerol, 1 mM TCEP; preformed homodimers mixed; conditions: both partners purified
[4] = biological target: the molecule itself; assay: AUC; sedimentation velocity, WT and oligomer-interface mutants each at 20 μM; 20 mM Tris-HCl, 150 mM NaCl, pH 8.0, 20 °C
[5] = biological target: B8; assay: anion exchange chromatography (Mono Q); the two αG mutants mixed equimolar at 20 μM, overnight on ice, diluted five times, Mono Q 5/50 GL, linear NaCl gradient, 20 mM Tris pH 8.5; peaks analysed by SDS-PAGE; conditions: both partners purified
[6] = biological target: the molecule itself; assay: SAXS; inline gel filtration (Superdex 200 5/150); 20 mM Tris pH 8.5, 200 mM NaCl, 1 mM TCEP, 5% glycerol, 12 °C; WT injected at 2.2 mg/ml, I1243A at 3.5 mg/ml
[7] = biological target: the molecule itself; assay: SEC; peaks from the Mono Q column on Superdex 200 Increase 10/300 GL; 20 mM Tris pH 8.5, 200 mM NaCl, 1 mM TCEP

Binder: B1
binding result [1]: binds

Binder: B2
binding result [1]: binds

Binder: B3
stoichiometry N [2]: 2 | binding result [3]: binds

Binder: B4
stoichiometry N [4]: 2

Binder: B5
stoichiometry N [4]: 2 | binding result [5]: binds

Binder: B6
stoichiometry N [6]: 2

Binder: B7
binding result [4]: binds

Binder: B8
stoichiometry N [7]: 2
